Article PMC7608914, “Bridging of nucleosome-proximal DNA double-strand breaks by PARP2 enhances its interaction with HPF1”

Columns and labels:
Details in all cases: protein: recombinant; (HisTrap purified); label: 6-FAM on 5' end of bottom strand; blunt
PARP2-WT [1] = biological target: T1, PARP2-WT (Homo sapiens, UniProt Q9UGN5-2 1-570); assay: fluorescence polarization; 60 mM KCl, 8 mM MgCl2; FP/FRET: 50 mM Tris-HCl pH 8, 50 mM NaCl, 1 mM MgCl2, 0.1 mM EDTA, 0.1 mM TCEP, 0.01% NP-40, temperature not stated; EMSA: 20 mM Tris pH 7.5, 1 mM EDTA, 1 mM DTT, 4 C
PARP2-QFRD [2] = biological target: T2, PARP2-QFRD (Homo sapiens, UniProt Q9UGN5-2 1-570, Q112R;F113D); assay: as above
PARP2-QFRD [3] = biological target: T2, PARP2-QFRD; assay: fluorescence polarization; 50 mM NaCl, 1 mM MgCl2; Hill 0.9; FP/FRET: 50 mM Tris-HCl pH 8, 50 mM NaCl, 1 mM MgCl2, 0.1 mM EDTA, 0.1 mM TCEP, 0.01% NP-40, temperature not stated; EMSA: 20 mM Tris pH 7.5, 1 mM EDTA, 1 mM DTT, 4 C
PARP2-WT [4] = biological target: T1, PARP2-WT; assay: fluorescence polarization; 50 mM NaCl, 1 mM MgCl2; Hill 1.2; FP/FRET: 50 mM Tris-HCl pH 8, 50 mM NaCl, 1 mM MgCl2, 0.1 mM EDTA, 0.1 mM TCEP, 0.01% NP-40, temperature not stated; EMSA: 20 mM Tris pH 7.5, 1 mM EDTA, 1 mM DTT, 4 C

B1: p18mer_fluorescein (dsDNA)
DNA 1: GGGTTGCGGCCGCTTGGG
DNA 2: CCCAAGCGGCCGCAACCC
modifications: 5'-phosphate on top strand
- Kd (PARP2-WT [1]): ~240 nM
- Kd (PARP2-QFRD [2]): ~240 nM
- Kd (PARP2-QFRD [3]): 17.1 ± 1.8 nM
- Kd (PARP2-WT [4]): 11.1 ± 0.4 nM
